For one sequence, Kd results are on record in article PMC7734321.

Assay in all cases: MST
Holding throughout (conditions): N6 of strand 1 = tetrahydrofuran (F, abasic site analog), opposite G; MST: 50 mM Tris-HCl pH 7.5, 50 mM KCl, 1 mM EDTA, 1 mM DTT, 7% glycerol, 25 C, 10 min, 0.5 uM DNA; authors call Kd values estimates only

The target in data set [1] is NEIL1 (endonuclease VIII-like 1) (Homo sapiens) (UniProt Q96FI4).
In data set [2] the target is T1, Nei (endonuclease VIII) (Escherichia coli) (UniProt P50465).
T1 sequence: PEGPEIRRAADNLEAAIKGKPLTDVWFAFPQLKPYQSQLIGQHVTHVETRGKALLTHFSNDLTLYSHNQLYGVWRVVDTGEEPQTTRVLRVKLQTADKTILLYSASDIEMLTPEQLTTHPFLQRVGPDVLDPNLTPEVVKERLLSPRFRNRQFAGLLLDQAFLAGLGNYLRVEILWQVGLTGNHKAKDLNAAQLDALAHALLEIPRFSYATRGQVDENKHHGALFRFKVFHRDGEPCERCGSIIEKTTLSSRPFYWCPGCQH

Data set [3] addresses T2, NTH1 (endonuclease III) (Homo sapiens) (UniProt P78549).
T2 sequence: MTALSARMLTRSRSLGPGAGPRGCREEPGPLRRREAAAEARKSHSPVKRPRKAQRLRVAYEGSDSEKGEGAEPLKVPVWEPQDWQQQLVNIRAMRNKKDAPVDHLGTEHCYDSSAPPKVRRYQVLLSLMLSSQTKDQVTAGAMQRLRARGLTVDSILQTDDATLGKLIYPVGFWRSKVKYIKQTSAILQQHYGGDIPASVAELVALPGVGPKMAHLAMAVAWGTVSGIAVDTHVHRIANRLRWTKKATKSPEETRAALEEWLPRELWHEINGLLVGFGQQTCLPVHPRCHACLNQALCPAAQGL

Data set [4] addresses OGG1 (8-oxoguanine-DNA glycosylase) (Homo sapiens) (UniProt O15527).
Data set [5] addresses T3, Fpg (formamidopyrimidine-DNA glycosylase) (Escherichia coli) (UniProt P05523).
T3 sequence: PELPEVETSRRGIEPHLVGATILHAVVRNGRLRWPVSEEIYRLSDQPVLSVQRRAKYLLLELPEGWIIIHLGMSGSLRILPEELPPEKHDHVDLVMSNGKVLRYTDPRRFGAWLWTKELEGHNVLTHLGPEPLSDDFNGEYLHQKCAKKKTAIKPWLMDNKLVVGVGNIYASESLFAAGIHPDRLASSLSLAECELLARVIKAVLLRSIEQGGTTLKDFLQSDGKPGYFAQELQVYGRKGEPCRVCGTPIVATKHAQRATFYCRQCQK

In general, pKd refers to the negative decadic logarithm of the Kd, by convention in mol/L.

pKd: −log10 of the molar value.

OGG1 (8-oxoguanine-DNA glycosylase) (Homo sapiens), sequence (O15527 whole entry): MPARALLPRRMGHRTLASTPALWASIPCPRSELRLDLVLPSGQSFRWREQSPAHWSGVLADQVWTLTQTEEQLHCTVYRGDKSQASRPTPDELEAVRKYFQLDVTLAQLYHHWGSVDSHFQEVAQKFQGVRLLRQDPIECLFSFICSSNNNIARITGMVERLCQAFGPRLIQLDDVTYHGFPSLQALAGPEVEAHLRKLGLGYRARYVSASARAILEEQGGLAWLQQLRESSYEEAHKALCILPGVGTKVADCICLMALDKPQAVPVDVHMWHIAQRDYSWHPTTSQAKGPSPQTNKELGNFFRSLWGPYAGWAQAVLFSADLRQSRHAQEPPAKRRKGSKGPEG
NEIL1 (endonuclease VIII-like 1) (Homo sapiens), sequence (Q96FI4 2-390): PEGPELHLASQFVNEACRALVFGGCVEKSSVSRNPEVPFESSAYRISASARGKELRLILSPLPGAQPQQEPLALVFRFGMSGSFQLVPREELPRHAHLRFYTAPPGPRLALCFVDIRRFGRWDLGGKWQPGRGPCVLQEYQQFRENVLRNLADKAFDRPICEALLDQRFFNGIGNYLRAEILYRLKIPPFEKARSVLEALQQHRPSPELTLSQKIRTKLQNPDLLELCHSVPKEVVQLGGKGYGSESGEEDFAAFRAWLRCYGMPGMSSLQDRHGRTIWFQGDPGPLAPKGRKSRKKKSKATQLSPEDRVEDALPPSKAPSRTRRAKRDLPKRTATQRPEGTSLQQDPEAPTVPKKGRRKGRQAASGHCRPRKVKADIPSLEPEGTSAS

In the case of “GCTCANGTACAGAGCTG / CAGCTCTGTACGTGAGC [F/G]”, the pKd is 5.36 in data set [1]; 6.30 in data set [2]; 6.52 in data set [3]; 5.55 in data set [4]; 5.72 in data set [5].
